Source: PMC2504306 (Nucleic Acids Research, 2008)
Like-named read-outs stand apart in the source and are kept apart here. One block for each molecule: values may come before it.

How the values were obtained:
Assay in all cases: SPR
[1] = biological target: C-terminal topoisomerase domain of Sulfolobus solfataricus reverse gyrase TopR1 (Sulfolobus solfataricus P2) (UniProt Q97ZZ8)
[2] = biological target: T1, C-terminal topoisomerase domain of Sulfolobus solfataricus reverse gyrase TopR1 (Sulfolobus solfataricus P2, UniProt Q97ZZ8 605-1242)
T1 sequence (looked up): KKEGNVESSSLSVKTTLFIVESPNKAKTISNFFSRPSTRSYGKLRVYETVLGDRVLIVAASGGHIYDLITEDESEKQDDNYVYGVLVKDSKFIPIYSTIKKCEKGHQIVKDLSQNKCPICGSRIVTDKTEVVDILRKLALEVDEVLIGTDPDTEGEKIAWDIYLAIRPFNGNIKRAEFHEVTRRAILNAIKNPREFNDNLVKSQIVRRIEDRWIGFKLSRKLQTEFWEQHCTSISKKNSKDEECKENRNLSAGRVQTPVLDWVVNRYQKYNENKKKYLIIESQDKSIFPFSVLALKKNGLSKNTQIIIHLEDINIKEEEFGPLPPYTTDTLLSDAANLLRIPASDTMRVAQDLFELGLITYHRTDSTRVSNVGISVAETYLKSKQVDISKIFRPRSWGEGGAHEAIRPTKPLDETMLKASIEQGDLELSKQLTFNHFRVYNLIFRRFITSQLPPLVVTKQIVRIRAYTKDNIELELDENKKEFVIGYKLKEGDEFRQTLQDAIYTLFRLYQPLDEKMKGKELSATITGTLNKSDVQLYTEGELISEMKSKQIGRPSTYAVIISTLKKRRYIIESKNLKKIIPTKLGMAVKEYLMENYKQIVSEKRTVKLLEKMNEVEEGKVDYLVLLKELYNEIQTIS

[3] = biological target: T1, C-terminal topoisomerase domain of …; remark: listed apart in the source
[4] = biological target: T1, C-terminal topoisomerase domain of …; remark: listed apart in the source

Ka [1]: 284 M⁻¹
Kd [1]: 3.53 mM
koff [1]: 0.00313 s⁻¹
kon [1]: 0.887 M⁻¹ s⁻¹
Molecule: non-specific DNA-binding protein Smj12 of S. solfataricus (natural protein)

Ka [2]: 7.59e+06 M⁻¹
Kd [2]: 132 nM
koff [2]: 0.00187 s⁻¹
kon [2]: 14200 M⁻¹ s⁻¹
Ka [3]: 2.87e+06 M⁻¹
Kd [3]: 349 nM
koff [3]: 0.00152 s⁻¹
kon [3]: 4350 M⁻¹ s⁻¹
Ka [4]: 6.32e+06 M⁻¹
Kd [4]: 158 nM
koff [4]: 0.00109 s⁻¹
kon [4]: 6900 M⁻¹ s⁻¹
B1: N-terminal ATPase (helicase-like) domain of Sulfolobus solfataricus reverse gyrase TopR1 (domain or fragment, Sulfolobus solfataricus P2, UniProt Q97ZZ8 1-607, looked up)
chain: MTSINKVPPSIYTRSCPNCGGNISSQRLFNGSVCESCLKDDREFSNLSDLINILSENSNLKNLTQIRDVLEEYKKVEEIFGKLLNNSKPIGPQRSWTIRFLRGESFAIIAPPGLGKTTFGLIMSLYNATRNRKSIIIFPTRTLISQTVDKLAKFSELYSYSPRILYNKQSPTQTENILDQLKSGNFDIFISTNRFVIQNLSELSNIKFDFIFVDDVDAALKSGKSAKAILRLVGFTDEDIQTTMKLLRENIGEEEKFGKIQEIRESRLKDKIVIFSSATISRGNPILSSLMGFRPGSSVIYLRNIYDSYIDLTQTCKGQDFEECTLGTVIKLLKRLNDGTLIFVPIDKGAQYADYLASNLRDHGINVESVASSSISKLEKFERGEVSSLVGVATHYGVLVRGIDLPWRVKYSIFVGIPKFKFKIGEYMHPLALTRLLSLVYLVKNDDKVRGLLSYIRKRLRKISPAALAMLAKDIREGKIDDERLKEAYNLVNEYLKDNEFLKKVSDVGDLVIEGDYILMPDYLTYIQASGRTSRLYGANLTTGLSVLLIDNSRLFELLNKKLNLILDEVKWYSLDIDADKLGQVSLSDISAKITEERESLSKIKKE
